Experiments:
Assay in all cases: two-hybrid library CCNG1;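 also: natural log of median RNA to DNA barcode read ratio; higher means stronger binding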
4H967-bN = molecular target: T1, 4H967-bN
T1 chain: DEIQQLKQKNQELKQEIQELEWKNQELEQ

4H3782-bN = molecular target: T2, 4H3782-bN
T2 chain: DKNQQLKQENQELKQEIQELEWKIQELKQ

4H1845-bN = molecular target: T3, 4H1845-bN
T3 chain: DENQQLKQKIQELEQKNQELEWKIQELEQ

4H687-bN = molecular target: T4, 4H687-bN
T4 chain: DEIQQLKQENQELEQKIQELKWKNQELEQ

4H2576-bN = molecular target: T5, 4H2576-bN
T5 chain: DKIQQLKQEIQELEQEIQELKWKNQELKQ

4H3843-bN = molecular target: T6, 4H3843-bN
T6 chain: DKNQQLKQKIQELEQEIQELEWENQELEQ

4H72-bN = molecular target: T7, 4H72-bN
T7 chain: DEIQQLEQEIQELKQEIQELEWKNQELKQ

4H3907-bN = molecular target: T8, 4H3907-bN
T8 chain: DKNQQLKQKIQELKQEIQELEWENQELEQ

4H883-bN = molecular target: T9, 4H883-bN
T9 chain: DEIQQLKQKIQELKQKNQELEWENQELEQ

4H331-bN = molecular target: T10, 4H331-bN
T10 chain: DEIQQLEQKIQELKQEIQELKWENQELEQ

4H607-bN = molecular target: T11, 4H607-bN
T11 chain: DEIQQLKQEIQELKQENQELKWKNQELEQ

4H1369-bN = molecular target: T12, 4H1369-bN
T12 chain: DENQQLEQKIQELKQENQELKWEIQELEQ

4H1446-bN = molecular target: T13, 4H1446-bN
T13 chain: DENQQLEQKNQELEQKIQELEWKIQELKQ

4H2697-bN = molecular target: T14, 4H2697-bN
T14 chain: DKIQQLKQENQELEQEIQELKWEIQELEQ

4H1193-bN = molecular target: T15, 4H1193-bN
T15 chain: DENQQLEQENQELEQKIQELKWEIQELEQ

4H4001-bN = molecular target: T16, 4H4001-bN
T16 chain: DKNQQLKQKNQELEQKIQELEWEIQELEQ

4H3592-bN = molecular target: T17, 4H3592-bN
T17 chain: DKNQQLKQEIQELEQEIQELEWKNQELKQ

4H4038-bN = molecular target: T18, 4H4038-bN
T18 chain: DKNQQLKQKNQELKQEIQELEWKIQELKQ

4H370-bN = molecular target: T19, 4H370-bN
T19 chain: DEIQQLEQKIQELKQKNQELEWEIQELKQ

4H568-bN = molecular target: T20, 4H568-bN
T20 chain: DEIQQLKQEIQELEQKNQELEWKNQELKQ

4H953-bN = molecular target: T21, 4H953-bN
T21 chain: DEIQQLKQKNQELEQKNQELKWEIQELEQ

4H3606-bN = molecular target: T22, 4H3606-bN
T22 chain: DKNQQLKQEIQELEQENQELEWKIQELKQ

4H1328-bN = molecular target: T23, 4H1328-bN
T23 chain: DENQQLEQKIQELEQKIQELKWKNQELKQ

4H2667-bN = molecular target: T24, 4H2667-bN
T24 chain: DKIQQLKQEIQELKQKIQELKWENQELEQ

4H2610-bN = molecular target: T25, 4H2610-bN
T25 chain: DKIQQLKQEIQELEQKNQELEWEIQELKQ

4H3189-bN = molecular target: T26, 4H3189-bN
T26 chain: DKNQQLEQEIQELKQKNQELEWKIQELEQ

4H918-bN = molecular target: T27, 4H918-bN
T27 chain: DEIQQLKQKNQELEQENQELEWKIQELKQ

4H462-bN = molecular target: T28, 4H462-bN
T28 chain: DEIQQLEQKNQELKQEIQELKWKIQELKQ

4H3601-bN = molecular target: T29, 4H3601-bN
T29 chain: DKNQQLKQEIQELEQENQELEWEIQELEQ

4H797-bN = molecular target: T30, 4H797-bN
T30 chain: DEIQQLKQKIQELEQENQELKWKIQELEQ

4H1387-bN = molecular target: T31, 4H1387-bN
T31 chain: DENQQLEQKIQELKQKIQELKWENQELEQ

4H1406-bN = molecular target: T32, 4H1406-bN
T32 chain: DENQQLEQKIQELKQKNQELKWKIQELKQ

- interaction score (4H967-bN): -0.916
- interaction score (4H3782-bN): 1.24
- interaction score (4H1845-bN): -0.197
- interaction score (4H687-bN): -0.463
- interaction score (4H2576-bN): -2.2
- interaction score (4H3843-bN): -1.2
- interaction score (4H72-bN): -2.07
- interaction score (4H3907-bN): -0.628
- interaction score (4H883-bN): -0.365
- interaction score (4H331-bN): -1.06
- interaction score (4H607-bN): -0.718
- interaction score (4H1369-bN): -0.409
- interaction score (4H1446-bN): -0.688
- interaction score (4H2697-bN): -0.604
- interaction score (4H1193-bN): -1.79
- interaction score (4H4001-bN): -0.667
- interaction score (4H3592-bN): -0.683
- interaction score (4H4038-bN): 1.89
- interaction score (4H370-bN): -1.1
- interaction score (4H568-bN): -0.982
- interaction score (4H953-bN): -0.991
- interaction score (4H3606-bN): -0.563
- interaction score (4H1328-bN): -0.785
- interaction score (4H2667-bN): -1.42
- interaction score (4H2610-bN): -2.18
- interaction score (4H3189-bN): -0.76
- interaction score (4H918-bN): -1.23
- interaction score (4H462-bN): 1.11
- interaction score (4H3601-bN): -0.788
- interaction score (4H797-bN): -0.958
- interaction score (4H1387-bN): -2.15
- interaction score (4H1406-bN): -0.457
Binder: DENQQLEQENQELEQKIQELKWEIQELEQ [4H1193-bN]
